# Data reported in the supplement of paper PMC10065799, “High-throughput profiling of sequence recognition by tyrosine kinases and SH2 domains using bacterial peptide display” (eLife, 2023).
# Biological target: c-Src SH2
# Test: SH2 binding enrichment of the phosphorylated peptide, bacterial display (enrichment ratio); higher = better substrate or ligand; peptides without Tyr show the background
# 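For SH2 binding enrichment of the phosphorylated peptide, bacterial display in this document: peptide library displayed on the E. coli surface as eCPX fusions, selected cells deep-sequenced, score is each peptide's frequency after selection divided by its frequency in the input.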
# 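For phosphorylation enrichment, bacterial display in this document: 11-residue human phosphosite peptides and single-mutation variants displayed on the E. coli surface, counted by deep sequencing, each peptide's frequency after selection divided by its frequency in the unselected input library; frequency after pTyr selection over input frequency; kinase dosed for 20-30% of maximal phosphorylation in three min.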
row,Sequence,SH2 binding enrichment
1,THLAPYSDELR [APOA1_Y190],0.437
2,KLPDAYEPLIL [G6PD_Y437_R439P],1.49
3,ESKKHYGYSLY [ANXA3_Y295_F291S],0.913
4,DTSKMYIPHTD [EXPH5_Y782],0.417
5,NAPNSYGRRPS [CDKN2A_Y44_I49S],0.747
6,LDPDSYNKFEN [FOXC1_Y159_M161K],0.409
7,LNGDRYFKGIV [DCX_Y64_R59L],0.618
8,AAVNGYVFGGG [ECHS1_Y137_A138V],0.489
9,LYSGDYYRIQG [DDR2_Y740],0.984
10,LRVHSYKSMQH [DRC7_Y516_P521H],0.841
11,IKAGAYDFPSP [CAMK2A_Y230],4.16
12,QLAPQYTFAQG [FLNA_Y1761_YF],0.634
13,LTERGYSFTTT [ACTB_Y198],0.596
14,LTVVIYVLVGR [EPHA3_Y561_I564V],2.03
15,FRIDHYLGKEM [G6PD_Y202_YF],0.625
16,KLFRVYCDMNT [FGB_Y269_P265L_YF],0.918
17,HDHFGYRQSVT [CD55_Y245_R240H_YF],0.628

# More lines, now with the values ahead:
row,SH2 binding enrichment,Sequence
1,0.67,PIDLYYLMDLS [ITGB2_Y131]
2,0.865,FFVVEYRNQKP [MUC17_Y4332_D4334N_YF]
3,0.723,GCLSKYSGVFS [TUBGCP6_Y1624_V1621L]
4,0.423,DRLASYLEKVR [KRT13_Y118]
5,0.729,ERWLKYFPIEQ [HS3ST5_Y244]
6,0.957,MCITQYKRESQ [PRNP_Y218_E219K]
7,2.35,SHNKYYMLVAH [MFSD8_Y134_R139H]
8,0.459,SLMGCYNLTFM [HS6ST3_Y323_V320M]
9,0.487,PKDSAYVTWEP
10,0.946,VKANTYEKFWP [GATM_Y100_YF]
11,0.853,RQQEVYLLFKQ [RARRES1_Y159_D158V_YF]
12,0.91,RMQLPYDSTWE [PDGFRB_Y589_P584R]
13,0.586,VCDSDYSASRW [LRP5_Y1552]
14,0.773,CTTIHYNFMRN [TP53_Y234_C238R_YF]
15,0.573,VPVDGYISGLL [PAK6_Y81_M76V]
16,0.475,ITGNGYYFRVF [MYBPC3_Y1135_I1131T]

# Biological target: SHP2-C SH2
# Test: as above
row,Sequence,SH2 binding enrichment
1,THLAPYSDELR [APOA1_Y190],0.909
2,KLPDAYEPLIL [G6PD_Y437_R439P],0.917
3,ESKKHYGYSLY [ANXA3_Y295_F291S],0.963
4,DTSKMYIPHTD [EXPH5_Y782],0.512
5,NAPNSYGRRPS [CDKN2A_Y44_I49S],0.533
6,LDPDSYNKFEN [FOXC1_Y159_M161K],0.838
7,LNGDRYFKGIV [DCX_Y64_R59L],0.686
8,AAVNGYVFGGG [ECHS1_Y137_A138V],0.994
9,LYSGDYYRIQG [DDR2_Y740],0.531
10,LRVHSYKSMQH [DRC7_Y516_P521H],1.18
11,IKAGAYDFPSP [CAMK2A_Y230],0.687
12,QLAPQYTFAQG [FLNA_Y1761_YF],1.15
13,LTERGYSFTTT [ACTB_Y198],0.654
14,LTVVIYVLVGR [EPHA3_Y561_I564V],4.03
15,FRIDHYLGKEM [G6PD_Y202_YF],0.607
16,KLFRVYCDMNT [FGB_Y269_P265L_YF],0.65
17,HDHFGYRQSVT [CD55_Y245_R240H_YF],0.871

# Second part, the sequence after the results:
row,SH2 binding enrichment,Sequence
1,0.911,PIDLYYLMDLS [ITGB2_Y131]
2,1.38,FFVVEYRNQKP [MUC17_Y4332_D4334N_YF]
3,1.07,GCLSKYSGVFS [TUBGCP6_Y1624_V1621L]
4,0.676,DRLASYLEKVR [KRT13_Y118]
5,1.05,ERWLKYFPIEQ [HS3ST5_Y244]
6,1.08,MCITQYKRESQ [PRNP_Y218_E219K]
7,30,SHNKYYMLVAH [MFSD8_Y134_R139H]
8,0.542,SLMGCYNLTFM [HS6ST3_Y323_V320M]
9,0.675,PKDSAYVTWEP
10,0.569,VKANTYEKFWP [GATM_Y100_YF]
11,1.05,RQQEVYLLFKQ [RARRES1_Y159_D158V_YF]
12,0.747,RMQLPYDSTWE [PDGFRB_Y589_P584R]
13,0.697,VCDSDYSASRW [LRP5_Y1552]
14,0.896,CTTIHYNFMRN [TP53_Y234_C238R_YF]
15,0.568,VPVDGYISGLL [PAK6_Y81_M76V]
16,0.799,ITGNGYYFRVF [MYBPC3_Y1135_I1131T]

# Biological target: Grb2 SH2 (UniProt P62993)
# Test: as above
row,Sequence,SH2 binding enrichment
1,THLAPYSDELR [APOA1_Y190],0.723
2,KLPDAYEPLIL [G6PD_Y437_R439P],0.964
3,ESKKHYGYSLY [ANXA3_Y295_F291S],0.704
4,DTSKMYIPHTD [EXPH5_Y782],0.679
5,NAPNSYGRRPS [CDKN2A_Y44_I49S],0.774
6,LDPDSYNKFEN [FOXC1_Y159_M161K],0.681
7,LNGDRYFKGIV [DCX_Y64_R59L],0.78
8,AAVNGYVFGGG [ECHS1_Y137_A138V],0.791
9,LYSGDYYRIQG [DDR2_Y740],1.02
10,LRVHSYKSMQH [DRC7_Y516_P521H],0.881
11,IKAGAYDFPSP [CAMK2A_Y230],1.03
12,QLAPQYTFAQG [FLNA_Y1761_YF],0.829
13,LTERGYSFTTT [ACTB_Y198],0.746
14,LTVVIYVLVGR [EPHA3_Y561_I564V],3.76
15,FRIDHYLGKEM [G6PD_Y202_YF],0.932
16,KLFRVYCDMNT [FGB_Y269_P265L_YF],0.75
17,HDHFGYRQSVT [CD55_Y245_R240H_YF],0.803

# The remaining lines, values ahead:
row,SH2 binding enrichment,Sequence
1,0.922,PIDLYYLMDLS [ITGB2_Y131]
2,1.46,FFVVEYRNQKP [MUC17_Y4332_D4334N_YF]
3,1.04,GCLSKYSGVFS [TUBGCP6_Y1624_V1621L]
4,0.93,DRLASYLEKVR [KRT13_Y118]
5,1.25,ERWLKYFPIEQ [HS3ST5_Y244]
6,0.897,MCITQYKRESQ [PRNP_Y218_E219K]
7,1.69,SHNKYYMLVAH [MFSD8_Y134_R139H]
8,0.823,SLMGCYNLTFM [HS6ST3_Y323_V320M]
9,0.938,PKDSAYVTWEP
10,0.931,VKANTYEKFWP [GATM_Y100_YF]
11,1.34,RQQEVYLLFKQ [RARRES1_Y159_D158V_YF]
12,0.445,RMQLPYDSTWE [PDGFRB_Y589_P584R]
13,0.979,VCDSDYSASRW [LRP5_Y1552]
14,0.949,CTTIHYNFMRN [TP53_Y234_C238R_YF]
15,0.893,VPVDGYISGLL [PAK6_Y81_M76V]
16,0.665,ITGNGYYFRVF [MYBPC3_Y1135_I1131T]

# Biological target: Hck (UniProt P08631)
# Sequence (P08631 whole entry, looked up): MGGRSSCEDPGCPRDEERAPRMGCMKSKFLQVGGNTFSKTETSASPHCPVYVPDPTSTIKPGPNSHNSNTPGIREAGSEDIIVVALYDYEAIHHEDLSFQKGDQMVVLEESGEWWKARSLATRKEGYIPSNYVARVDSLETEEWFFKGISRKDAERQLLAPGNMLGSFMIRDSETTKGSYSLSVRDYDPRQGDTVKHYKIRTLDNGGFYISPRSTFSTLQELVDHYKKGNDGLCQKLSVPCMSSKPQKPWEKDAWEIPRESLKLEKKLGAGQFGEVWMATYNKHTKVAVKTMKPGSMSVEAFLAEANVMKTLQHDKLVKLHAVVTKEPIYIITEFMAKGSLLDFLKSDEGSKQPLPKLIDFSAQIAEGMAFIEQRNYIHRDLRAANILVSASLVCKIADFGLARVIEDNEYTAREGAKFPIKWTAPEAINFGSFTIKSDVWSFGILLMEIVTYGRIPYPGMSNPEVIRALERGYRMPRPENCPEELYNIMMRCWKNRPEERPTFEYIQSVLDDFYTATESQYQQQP
# Test: phosphorylation enrichment, bacterial display (enrichment ratio); higher = better substrate or ligand; peptides without Tyr show the background
row,Sequence,phosphorylation enrichment
1,PIDLYYLMDLS [ITGB2_Y131],7.58
2,THLAPYSDELR [APOA1_Y190],0.481
3,FFVVEYRNQKP [MUC17_Y4332_D4334N_YF],0.687
4,GCLSKYSGVFS [TUBGCP6_Y1624_V1621L],0.542
5,DRLASYLEKVR [KRT13_Y118],0.375
6,KLPDAYEPLIL [G6PD_Y437_R439P],1.08
7,ESKKHYGYSLY [ANXA3_Y295_F291S],0.646
8,ERWLKYFPIEQ [HS3ST5_Y244],0.436
9,DTSKMYIPHTD [EXPH5_Y782],0.427
10,MCITQYKRESQ [PRNP_Y218_E219K],0.433
11,NAPNSYGRRPS [CDKN2A_Y44_I49S],0.512
12,LDPDSYNKFEN [FOXC1_Y159_M161K],0.698
13,LNGDRYFKGIV [DCX_Y64_R59L],4.24
14,AAVNGYVFGGG [ECHS1_Y137_A138V],0.429
15,SHNKYYMLVAH [MFSD8_Y134_R139H],0.533
16,LYSGDYYRIQG [DDR2_Y740],10.4
17,SLMGCYNLTFM [HS6ST3_Y323_V320M],0.724

row,Sequence,phosphorylation enrichment
1,LRVHSYKSMQH [DRC7_Y516_P521H],0.634
2,PKDSAYVTWEP,2.38
3,IKAGAYDFPSP [CAMK2A_Y230],0.419
4,QLAPQYTFAQG [FLNA_Y1761_YF],0.443
5,VKANTYEKFWP [GATM_Y100_YF],1.07
6,LTERGYSFTTT [ACTB_Y198],0.432
7,LTVVIYVLVGR [EPHA3_Y561_I564V],0.168
8,RQQEVYLLFKQ [RARRES1_Y159_D158V_YF],0.66
9,RMQLPYDSTWE [PDGFRB_Y589_P584R],0.764
10,VCDSDYSASRW [LRP5_Y1552],0.518
11,FRIDHYLGKEM [G6PD_Y202_YF],0.49
12,CTTIHYNFMRN [TP53_Y234_C238R_YF],0.577
13,VPVDGYISGLL [PAK6_Y81_M76V],0.542
14,KLFRVYCDMNT [FGB_Y269_P265L_YF],0.471
15,ITGNGYYFRVF [MYBPC3_Y1135_I1131T],0.385
16,HDHFGYRQSVT [CD55_Y245_R240H_YF],0.51
